In patent publication US20210085800A1:

Target: CD123 on the surface of EOL-1, KOPN-8 and MOLM-1 cells (UniProt P26951)
Assay: cell-based or functional assay

Chain of CD123 on the surface of EOL-1, KOPN-8 and MOLM-1 cells (P26951 19-378 limits assumed): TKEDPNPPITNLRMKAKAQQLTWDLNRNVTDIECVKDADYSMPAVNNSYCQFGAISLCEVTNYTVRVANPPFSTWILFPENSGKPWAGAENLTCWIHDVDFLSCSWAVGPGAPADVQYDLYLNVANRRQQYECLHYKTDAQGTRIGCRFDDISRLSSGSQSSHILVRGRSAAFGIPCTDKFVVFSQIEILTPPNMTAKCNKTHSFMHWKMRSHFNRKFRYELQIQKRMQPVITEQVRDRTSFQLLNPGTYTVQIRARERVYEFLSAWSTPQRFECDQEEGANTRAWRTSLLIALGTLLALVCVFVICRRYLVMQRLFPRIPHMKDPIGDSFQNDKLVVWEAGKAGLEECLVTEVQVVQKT

B1: huCD123-6Rv1.1-D2 (antibody, from a related filing, V domains shown)
VH: QFQLVQSGAEVVKPGASVKMSCKASGYTFTSSIMHWMKQKPGQGLEWIGYIKPYNDGTKYNQKFQGKATLTSDKSSSTANMELNSLTSEDSAVYYCAREGGNDYYDTMDYWGQGTSVTVSS
VL: DIQMTQSPSSMSASVGERVTITCRASQDINSYLSWFQQKPGKSPKTLIYRVNRLVDGVPSRFSGSGSGQDYSLTISSLEPEDMGIYYCLQYDAFPYTFGQGTKLEIKR
  IC50, in vitro cytotoxicity assay (WST-8), EOL-1 cells: 2 pM
  IC50, in vitro cytotoxicity assay (WST-8), KOPN-8 cells: 5 pM
  IC50, in vitro cytotoxicity assay (WST-8), MOLM-1 cells: 20 pM
  fold loss of cytotoxicity when CD123 is blocked by chCD123-6: 100 fold
